B1: C1orf137 (parent)
chain: LPQETNLTLKVCKPQAPQKLDPTL
B2: PRAME (parent)
chain: KKLKIFAMPMQDIKMILKMVQLDS

Variants of: B1
Assay: protein stability index of a GFP-peptide fusion (GPS, HEK-293T) (PSI 1-6); higher = more stable
Details: c terminus: a fixed tail appended
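Further: lentivirally expressed fusions sorted by FACS into six bins by GFP to DsRed ratio, PSI derived from sequencing read proportions per bin multiplied by bin number.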

Protein stability index, by site and new letter:
Q3: E 4.59; N 3.53; D 4.33; T 4.17; I 3.1; A 4.3; L 3.58; V 3.73; P 3.79; S 3.8; C 4.12; Y 3.34; W 2.54; F 3.08; K 3.96; G 3.63; R 3.29; M 3.6; H 3.6
T5: A 4.02; D 4.38; E 4.2; G 3.75; C 2.99; F 2.77
E4: Y 2.98; I 2.51; S 3.12; M 2.82; A 3.77; C 2.37; L 2.6; T 3.59; H 3.08; R 2.64; V 3.03; P 4.22; W 2.32; G 3.36; Q 3.74; K 3.46; N 3.94; F 2.44; D 3.7
L1: N 3.77; Q 4.38; F 2.79; D 4.73; K 3.93; T 4.44; I 3.97; H 3.36; A 4.06; M 4.04; V 4.34; S 4.46; R 3.48; P 4.65; Y 3.04; C 4; E 4.8; W 3.98
P2: V 3.13; C 3.27; H 3.5; G 3.79; A 3.84; N 3.46; K 3.06; Y 3.14; F 2.85; W 2.16; M 2.23; S 2.8; R 2.88; Q 3.76; D 4.3; L 2.65; T 3.92; I 3.49; E 4.18

Variants of: B2
Assay: as above
Details: c terminus: a fixed tail appended

Protein stability index, by site and new letter:
M19: H 2.59; W 2.46; F 2.46; S 2.44; N 2.21; T 3.38; D 2.13; Q 2.89; I 2.81; P 1.69; G 2.15; C 3.53
S24: E 4.07; G 2.47; N 2.87; V 2.5; D 4.26; Q 2.02; P 1.9; A 3.45; F 2.85; H 2.91; I 2.49; M 3.73; T 2.39; K 2.42; R 3.56
K18: S 2.19; T 2.42; Q 2.18; R 3.54; W 3.98; P 1.56; Y 2.62; M 2.67; N 1.99; V 4.3
Q21: I 2.69; T 3.42; P 3.91; A 3.36; M 2.33; N 2.82; E 2.03; G 3.64; W 1.98; K 3.17; C 3.19
D23: N 2.18; T 2.86; P 3.05; L 3.12; W 2.58; S 3.79; E 3.61; K 2.4; I 2.33; M 1.94; F 3.54
V20: D 2.19; Y 2.21; A 3.51; H 3.51; N 2.32; T 3.9; R 2.37; S 2.01; C 2.55; Q 2.9; F 2.98; K 4.07; E 2.33; I 4.22; P 2.22
L22: A 1.13; K 1.95; V 3.63; M 1.42; R 2.83; D 4.71; Q 2.51; Y 2.57; P 3.45; C 1.88; H 3.28; I 3.88

From the supplement of paper PMC10567573
